These results are taken from paper PMC2566858 (Nucleic Acids Research, 2008).

Like-named read-outs stand apart in the source and are kept apart here.

Holding throughout (assay): fluorescence anisotropy
Series [1] addresses T1, rGyr_hel (reverse gyrase helicase-like domain) (Thermotoga maritima, UniProt O51934 59-541).
T1 sequence: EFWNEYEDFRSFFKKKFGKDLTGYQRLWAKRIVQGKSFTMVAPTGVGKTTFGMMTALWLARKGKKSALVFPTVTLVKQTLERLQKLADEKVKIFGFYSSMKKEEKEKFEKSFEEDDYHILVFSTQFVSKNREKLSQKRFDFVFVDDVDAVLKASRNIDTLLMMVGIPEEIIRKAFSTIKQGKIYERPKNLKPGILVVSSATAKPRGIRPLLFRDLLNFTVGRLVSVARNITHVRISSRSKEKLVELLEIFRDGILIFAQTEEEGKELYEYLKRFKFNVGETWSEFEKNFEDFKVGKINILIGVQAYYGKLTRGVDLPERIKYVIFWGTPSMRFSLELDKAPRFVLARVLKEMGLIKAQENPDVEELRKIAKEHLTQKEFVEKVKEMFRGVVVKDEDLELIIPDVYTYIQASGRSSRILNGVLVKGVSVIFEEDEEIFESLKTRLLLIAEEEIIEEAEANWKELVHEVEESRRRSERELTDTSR

Series [2] concerns the target T2, rGyr_fl Y851F (full-length reverse gyrase) (Thermotoga maritima, UniProt O51934 1-1104, Y851F).
T2 sequence: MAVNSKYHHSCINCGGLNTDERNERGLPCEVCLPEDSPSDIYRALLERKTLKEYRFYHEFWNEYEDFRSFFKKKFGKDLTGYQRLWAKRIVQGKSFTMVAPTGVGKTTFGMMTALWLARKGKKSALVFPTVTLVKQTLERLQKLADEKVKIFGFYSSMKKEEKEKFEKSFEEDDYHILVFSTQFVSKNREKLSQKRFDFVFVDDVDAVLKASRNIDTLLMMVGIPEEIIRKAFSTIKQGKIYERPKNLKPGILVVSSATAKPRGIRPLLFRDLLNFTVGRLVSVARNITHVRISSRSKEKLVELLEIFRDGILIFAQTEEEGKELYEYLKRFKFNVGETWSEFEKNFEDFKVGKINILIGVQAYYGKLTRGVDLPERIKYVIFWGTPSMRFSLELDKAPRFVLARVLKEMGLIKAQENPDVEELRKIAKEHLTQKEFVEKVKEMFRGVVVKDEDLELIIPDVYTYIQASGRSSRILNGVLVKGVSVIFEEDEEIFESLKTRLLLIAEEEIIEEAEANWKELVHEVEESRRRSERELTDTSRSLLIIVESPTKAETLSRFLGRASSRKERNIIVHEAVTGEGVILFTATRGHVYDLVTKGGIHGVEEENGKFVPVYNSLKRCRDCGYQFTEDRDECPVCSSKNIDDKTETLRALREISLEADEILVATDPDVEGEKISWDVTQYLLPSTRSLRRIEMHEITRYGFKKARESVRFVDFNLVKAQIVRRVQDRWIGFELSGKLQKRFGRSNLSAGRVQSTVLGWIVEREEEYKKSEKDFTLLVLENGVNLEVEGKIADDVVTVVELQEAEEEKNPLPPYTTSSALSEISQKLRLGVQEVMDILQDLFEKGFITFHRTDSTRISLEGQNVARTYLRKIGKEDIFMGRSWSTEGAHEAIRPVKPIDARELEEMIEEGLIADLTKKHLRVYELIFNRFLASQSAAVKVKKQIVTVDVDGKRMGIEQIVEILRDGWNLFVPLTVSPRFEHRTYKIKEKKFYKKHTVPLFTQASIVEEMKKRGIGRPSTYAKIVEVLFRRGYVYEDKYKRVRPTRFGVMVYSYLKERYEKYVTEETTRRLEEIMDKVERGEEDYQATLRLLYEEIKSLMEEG

For series [3], the target named is T1, rGyr_hel (reverse gyrase helicase-like …). This is another data set of the same source.
For series [4] the target is unchanged. The source holds these as a separate data set.
The target of series [5] is T3, rGyr_hel K106Q (Thermotoga maritima, UniProt O51934 59-541, K106Q).
T3 sequence: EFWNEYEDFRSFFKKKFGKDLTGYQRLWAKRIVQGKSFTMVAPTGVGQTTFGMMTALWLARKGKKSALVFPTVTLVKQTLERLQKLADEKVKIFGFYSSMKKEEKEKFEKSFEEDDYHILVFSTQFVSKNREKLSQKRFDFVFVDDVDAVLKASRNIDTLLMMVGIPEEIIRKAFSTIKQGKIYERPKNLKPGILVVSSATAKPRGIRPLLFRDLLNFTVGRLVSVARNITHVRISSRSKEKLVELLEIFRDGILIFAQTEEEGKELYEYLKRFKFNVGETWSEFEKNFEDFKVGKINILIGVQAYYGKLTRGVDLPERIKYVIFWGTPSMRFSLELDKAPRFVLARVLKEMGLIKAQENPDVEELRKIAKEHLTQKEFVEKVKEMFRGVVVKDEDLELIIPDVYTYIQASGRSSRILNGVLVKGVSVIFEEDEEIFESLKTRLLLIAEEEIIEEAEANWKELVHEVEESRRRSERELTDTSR

The target of series [6] is T3, rGyr_hel K106Q. This is another data set of the same source.

B1: 60-base ssDNA (ssDNA)
DNA: AAGCCAAGCTTCTAGAGTCAGCCCGTGATATTCATTACTTCTTATCCTAGGATCCCCGTT
Turning to B1, the Kd was determined as 0.31 ± 0.04 µM in series [1]; 0.046 ± 0.008 µM in series [2]; 0.2 ± 0.03 µM in series [3]; 0.46 ± 0.03 µM in series [4]; 0.2 ± 0.02 µM in the series with rGyr_hel K106Q [5].

B2: 60 bp dsDNA (dsDNA)
DNA 1: AAGCCAAGCTTCTAGAGTCAGCCCGTGATATTCATTACTTCTTATCCTAGGATCCCCGTT
DNA 2: AACGGGGATCCTAGGATAAGAAGTAATGAATATCACGGGCTGACTCTAGAAGCTTGGCTT
For B2, the equilibrium dissociation constant (Kd) with rGyr_hel K106Q [6] is 1.7 ± 0.2 µM; in series [3] it was 3.9 ± 0.6 µM.
